Source: patent US20250059282A1 (University of Texas, published 2025)

Tests used:
Human PD-L2-HIS [1] = target: T1, Human PD-L2-HIS (human, UniProt Q9BQ51 20-220); test: ForteBio, IgG, monovalent
T1 construct: also called His-tagged human PD-L2; not shown: His tag
T1 sequence: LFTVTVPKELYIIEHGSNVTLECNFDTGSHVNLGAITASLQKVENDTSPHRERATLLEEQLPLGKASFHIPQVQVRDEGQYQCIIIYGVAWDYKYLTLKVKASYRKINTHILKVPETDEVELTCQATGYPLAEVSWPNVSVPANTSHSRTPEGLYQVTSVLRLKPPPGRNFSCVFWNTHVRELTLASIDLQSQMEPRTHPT

Human PD-L1-HIS [2] = target: T2, Human PD-L1-HIS (human, UniProt Q9NZQ7 19-238); test: ForteBio, IgG, monovalent
T2 construct: also called HIS-tagged monovalent PD-L1; His-tagged human PD-L1; not shown: His tag

Cyno PD-L1-Fc [3] = target: T3, Cyno PD-L1-Fc (cynomolgus, UniProt G7PSE7 19-238); test: ForteBio Octet, IgG, avid
T3 construct: also called cynomolgus PD-L1

Mouse PD-L1-Fc [4] = target: T4, Mouse PD-L1-Fc (mouse, UniProt Q9EP73 19-239, limits assumed); test: ForteBio Octet, IgG, avid
T4 construct: also called murine PD-L1; not shown: Fc

Mouse PD-L2-Fc [5] = target: T5, Mouse PD-L2-Fc (mouse, UniProt Q9WUL5 20-219, limits assumed); test: ForteBio Octet, IgG, avid
T5 construct: also called murine PD-L2; not shown: Fc
T5 sequence (looked up): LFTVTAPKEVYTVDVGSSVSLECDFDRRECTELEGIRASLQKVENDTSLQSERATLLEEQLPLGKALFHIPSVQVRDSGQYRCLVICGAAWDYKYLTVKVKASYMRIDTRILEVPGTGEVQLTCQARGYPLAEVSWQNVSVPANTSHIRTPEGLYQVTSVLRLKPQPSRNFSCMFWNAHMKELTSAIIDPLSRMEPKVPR

Cyno PD-L2-Fc [6] = target: T6, Cyno PD-L2-Fc (cynomolgus, UniProt A0A2K5U5Z4 20-220); test: ForteBio Octet, IgG, avid
T6 construct: also called cynomolgus PD-L2; not shown: Fc
T6 sequence: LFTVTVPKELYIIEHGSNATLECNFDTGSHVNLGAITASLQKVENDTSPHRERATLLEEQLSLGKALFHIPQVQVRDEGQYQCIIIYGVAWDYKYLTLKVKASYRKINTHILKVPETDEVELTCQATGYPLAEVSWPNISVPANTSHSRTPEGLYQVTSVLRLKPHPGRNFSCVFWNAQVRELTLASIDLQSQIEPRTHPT

Human PD-L1-HIS [7] = target: T2, Human PD-L1-HIS; test: ForteBio Octet, IgG; column head says Avid
Human PD-L2-HIS [8] = target: T1, Human PD-L2-HIS; test: ForteBio Octet, IgG, monovalent
Cyno PD-L1-Fc [9] = target: T3, Cyno PD-L1-Fc; test: ForteBio, IgG, avid
Mouse PD-L1-Fc [10] = target: T4, Mouse PD-L1-Fc; test: ForteBio, IgG, avid
Mouse PD-L2-Fc [11] = target: T5, Mouse PD-L2-Fc; test: ForteBio, IgG, avid
Cyno PD-L2-Fc [12] = target: T6, Cyno PD-L2-Fc; test: ForteBio, IgG, avid

T2 sequence (Q9NZQ7 19-238 limits assumed): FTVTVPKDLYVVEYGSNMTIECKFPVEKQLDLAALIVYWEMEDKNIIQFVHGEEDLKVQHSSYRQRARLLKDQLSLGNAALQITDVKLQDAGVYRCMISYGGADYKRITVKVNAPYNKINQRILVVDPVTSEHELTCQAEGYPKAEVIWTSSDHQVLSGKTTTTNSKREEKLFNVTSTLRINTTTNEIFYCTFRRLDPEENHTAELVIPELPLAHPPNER
T3 sequence (G7PSE7 entry or part of it limits assumed): as the sequence (Q9NZQ7 19-238 limits assumed) above, with A33T, A34S, S62N, R68Q, Q82R, F173L, T185A, T192I, H215L counted along it
T4 sequence (Q9EP73 19-239 limits assumed): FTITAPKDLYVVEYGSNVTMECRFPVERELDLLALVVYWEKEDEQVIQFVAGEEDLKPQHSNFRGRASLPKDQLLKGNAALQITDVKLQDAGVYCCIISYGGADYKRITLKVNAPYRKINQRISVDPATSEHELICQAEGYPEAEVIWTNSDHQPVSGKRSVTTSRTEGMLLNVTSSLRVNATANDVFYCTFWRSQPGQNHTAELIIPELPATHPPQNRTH

B1: BiPDL4-34 (antibody, V domains shown)
VH: QVQLVESGGGVIQPGRSLRLSCAASGFTFSAYLMHWVRQAPGKGLEWVAAIGYDGMNKYYADSVKGRFTISRDNSKNTLYLQMNSLRAEDTAVYYCARAGIEYSYAYTDYWGQGTLVTVSS
VL: EIVLTQSPGTLSLSPGERATLSCRASQFVYSSDLAWYQQKPGQAPRLLIYGASARAAGIPDRFSGSGSGTDFTLTISRLEPEDFAVYYCMQFGWWPPRTFGGGTKVEIK
notes: Fourth generation, IgG
Human PD-L2-HIS [1]
  Kd: 932 pM
Human PD-L1-HIS [2]
  Kd: 6850 pM
Cyno PD-L1-Fc [3]
  Kd: 408 pM
Mouse PD-L1-Fc [4]
  Kd: 544 pM
Mouse PD-L2-Fc [5]
  Kd: 5690 pM
Cyno PD-L2-Fc [6]
  Kd: 739 pM
Human PD-L1-HIS [7]
  Kd: 2170 pM
Human PD-L2-HIS [8]
  Kd: 932 pM
Cyno PD-L1-Fc [9]
  Kd: 408 pM
Mouse PD-L1-Fc [10]
  Kd: 544 pM
Mouse PD-L2-Fc [11]
  Kd: 5690 pM
Cyno PD-L2-Fc [12]
  Kd: 739 pM
